These results are taken from patent US20220056119A1 (Regeneron, published 2022).

Experiment [1] has as its target T1, Activin A (human, UniProt P08476 311-426).
T1 sequence: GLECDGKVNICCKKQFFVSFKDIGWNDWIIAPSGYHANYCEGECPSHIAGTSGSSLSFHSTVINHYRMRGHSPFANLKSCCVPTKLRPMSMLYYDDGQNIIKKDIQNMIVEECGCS
In words: cell-based or functional assay.

The next experiment addresses T2, Activin AB (human, UniProt P08476 311-426; P09529 293-407).
T2 chain 1: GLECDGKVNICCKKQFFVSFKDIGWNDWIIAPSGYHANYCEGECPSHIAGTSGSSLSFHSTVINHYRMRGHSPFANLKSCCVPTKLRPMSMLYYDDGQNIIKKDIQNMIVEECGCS
T2 chain 2: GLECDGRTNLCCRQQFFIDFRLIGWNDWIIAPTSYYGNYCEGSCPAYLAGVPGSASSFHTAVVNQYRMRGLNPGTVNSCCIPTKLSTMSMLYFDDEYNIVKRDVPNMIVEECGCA
In words: cell-based or functional assay.

For another experiment, the target named is T3, Activin AC (human, UniProt P55103 237-352).
T3 sequence 1: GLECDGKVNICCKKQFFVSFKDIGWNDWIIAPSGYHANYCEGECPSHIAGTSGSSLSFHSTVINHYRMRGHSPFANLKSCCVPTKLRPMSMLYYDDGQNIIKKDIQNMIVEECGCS
T3 sequence 2: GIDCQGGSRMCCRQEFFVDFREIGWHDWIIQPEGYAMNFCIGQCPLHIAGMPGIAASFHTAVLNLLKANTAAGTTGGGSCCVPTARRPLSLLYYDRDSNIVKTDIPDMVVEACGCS
In words: cell-based or functional assay.

The target of experiment [2] is T1, Activin A. Briefly: SPR, 5 nM Activin A + 15 nM binder over hActRIIA-hFc surface. As to the method: (§1) The binding signal (RU) was measured at 150 seconds after the start of the injection, and this signal was subtracted by the measured RU value for a negative control reference surface to determine the specific binding signal.
(Surface plasmon resonance follows binding to a sensor surface in real time, without labels.)

For experiment [3], the target named is T1, Activin A. Briefly: SPR, 5 nM Activin A + 30 nM binder over hActRIIA-hFc surface. As to the method: as §1
For experiment [4], the target named is T1, Activin A. In words: SPR, 5 nM Activin A + 60 nM binder over hActRIIA-hFc surface. As to the method: as §1
The target of experiment [5] is T1, Activin A. Briefly: SPR, 5 nM Activin A + 0.94 nM binder over hActRIIA-hFc surface. As for the experimental part: as §1
For experiment [6], the target named is T1, Activin A. Briefly: SPR, 5 nM Activin A + 1.88 nM binder over hActRIIA-hFc surface. As for the experimental part: as §1
Experiment [7] deals with T1, Activin A. In words: SPR, 5 nM Activin A + 3.75 nM binder over hActRIIA-hFc surface. As for the experimental part: as §1
Experiment [8] concerns the target T1, Activin A. Briefly: SPR, 5 nM Activin A + 7.50 nM binder over hActRIIA-hFc surface. As for the experimental part: as §1
Experiment [9] concerns the target T1, Activin A. Briefly: SPR, 5 nM Activin A + 15 nM binder over Follistatin-288 surface. As for the experimental part: as §1
Experiment [10] has as its target T1, Activin A. In words: SPR, 5 nM Activin A + 30 nM binder over Follistatin-288 surface. As to the method:
as §1

The target in experiment [11] is T1, Activin A. Briefly: SPR, 5 nM Activin A + 60 nM binder over Follistatin-288 surface. As for the experimental part:
as §1

For experiment [12], the target named is T1, Activin A. Briefly: SPR, 5 nM Activin A + 7.5 nM binder over Follistatin-288 surface. As for the experimental part:
as §1

The target of experiment [13] is T1, Activin A. Briefly: SPR, 5 nM Activin A + 0.94 nM binder over Follistatin-288 surface. As for the experimental part:
as §1

The target in experiment [14] is T1, Activin A. Briefly: SPR, 5 nM Activin A + 1.88 nM binder over Follistatin-288 surface. As for the experimental part:
as §1

In experiment [15] the target is T1, Activin A. Briefly: SPR, 5 nM Activin A + 3.75 nM binder over Follistatin-288 surface. As to the method: as §1
Experiment [16] addresses T1, Activin A. Briefly: SPR, 5 nM Activin A + 0 nM binder (no inhibitor) over Follistatin-288 surface. As for the experimental part: as §1
The target of experiment [17] is T1, Activin A. Briefly: SPR, 5 nM Activin A + 0.00 nM binder (no inhibitor) over hActRIIA-hFc surface. As for the experimental part: as §1

B1: H4H10445P2 (antibody, human IgG4, V domains shown)
VH: QVQLQESGPGLVKPSETLSLICSVSGGSFSSHFWSWIRQPPGKGLEWIGYVLYSGGTNYNPSLKSRVTISVDTSKNQFFLKLSSVTAADTADYYCARAISGITFGGIIVPGSFDIWGQGTMVTVSS
VL: not shown
As to B1, the “IC50, inhibition of 100 pM Activin A in A204/CAGAx12-Luc luciferase bioassay” value in the experiment with Activin A [1] is 5.3e-11 M.

B2: H4H10468P2 (antibody, human IgG4, V domains shown)
VH: QVQLQESGPGLVKPSETLSLTCTVSGGSFSSHFWSWIRQPPGKGLEWIGYIYYSGGTHYNPSLESRVTISVDTSKNQFSLKLNSVTAADTAVYYCARARSGITFGGLIVPGSFDIWGQGTMVTVSS
VL: not shown
As for B2, the “IC50, inhibition of 100 pM Activin A in A204/CAGAx12-Luc luciferase bioassay” value with Activin A [1] came to 3.9e-11 M. Moreover, the “IC50, inhibition of 30 pM Activin AB in A204/CAGAx12-Luc luciferase bioassay” value with Activin AB stood at 2.3e-09 M. Besides, in the experiment with Activin AC, the “IC50, inhibition of 4 nM Activin AC in A204/CAGAx12-Luc luciferase bioassay” value amounted to 3.4 nM.

B3: H4H10448P2 (antibody, human IgG4, V domains shown)
VH: QVQLQESGPGLVKPSETLSLTCTVSGGTFSSHFWSWIRQPPGKGLEWIGYIFYTGGTNHNPSLKSRVTISIDTSKNQFSLKLTSVTAADTAVYYCARARSGITFGGVIVPGSFDIWGQGTMVTVSS
VL: not shown
Take B3: the “IC50, inhibition of 100 pM Activin A in A204/CAGAx12-Luc luciferase bioassay” value with Activin A [1] turned out to be 4.6e-11 M.

B4: H4H10447P2 (antibody, human IgG4, V domains shown)
VH: QVQLQESGPGLVKPSETLSLTCSVSGGSFSSHFWSWIRQPPGKGLEWIGYIHYSGGTNYNPSLKSRVTISVDTSKNQFSLKLTSVTAADTADYYCARAISGITFGGMIVPGSFDVWGEGTMVTVSS
VL: not shown
In the case of B4, in the experiment with Activin A [1], the “IC50, inhibition of 100 pM Activin A in A204/CAGAx12-Luc luciferase bioassay” value amounted to 7.8e-11 M.

B5: H4H10438P2 (antibody, human IgG4, V domains shown)
VH: EVQLVESGGGLVQPGRSLRLSCAASGFTFDDNAMHWVRQPPGKGLEWVSGISWNSGSIGYADSVKGRFTISRDNAKNSLYLQMNSLRAEDTALYYCAKDINDILTGYPLFDYWGQGTLVTVSS
VL: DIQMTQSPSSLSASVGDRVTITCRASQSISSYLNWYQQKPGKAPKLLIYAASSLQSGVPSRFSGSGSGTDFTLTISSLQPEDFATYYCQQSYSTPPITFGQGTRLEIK
For the molecule B5, in the experiment with Activin A [1], the “IC50, inhibition of 100 pM Activin A in A204/CAGAx12-Luc luciferase bioassay” value amounted to 2.6e-10 M.

B6: H4H10426P (antibody, human IgG4, V domains shown)
VH: EVQLVESGGNLVQSGRSLRLSCTASGFAFDDFAMHWVRQVPGKGLEWVSGISWNSDTIGYADSVKGRFTISRDNAQNSLFLQMDSLRAEDTALYYCVKDMVRGLIGYYYYGMDVWGQGTTVTVSS
VL: EIVLTQSPAILSLSPGERAILSCRASQSIYTYLSWYQQTPGRAPRLLIYETSSRATGIPARFIGSGSGTDFTLTISSLEPEDFAFYYCQHRSDWPPTFGQGTKLEIK
As for B6, the “IC50, inhibition of 100 pM Activin A in A204/CAGAx12-Luc luciferase bioassay” value with Activin A [1] was 2.3e-10 M.

B7: H4H10423P (antibody, human IgG4, V domains shown)
VH: QVQLQQSGPGLLKPSQTLSLTCAISGDSVSSNSAAWSWIRQSPSRGLEWLGRTYYRANWFNDYALSVKSRITINPVTSTNHFSLQLHSVTPEDTAVYYCAREGALGYYFDSWGQGTLVTVSS
VL: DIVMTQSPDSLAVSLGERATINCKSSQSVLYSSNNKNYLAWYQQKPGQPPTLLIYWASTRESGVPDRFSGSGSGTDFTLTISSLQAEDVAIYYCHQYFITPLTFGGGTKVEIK
With B7, the “IC50, inhibition of 100 pM Activin A in A204/CAGAx12-Luc luciferase bioassay” value in the experiment with Activin A [1] was determined as 2e-10 M. Also, the “% bound RU w/ no inhibitor” value came to 112% with Activin A [2]; 114% in the experiment with Activin A [3]; 116% in the experiment with Activin A [4]; 112% with Activin A [5]; 114% with Activin A [6]; 111% with Activin A [7]. For the same molecule, the “% bound RU w/ no inhibitor” value is 110% with Activin A [8]; 96% with Activin A [9]; 94% with Activin A [10]; 93% with Activin A [11]; 97% in the experiment with Activin A [12]; 120% in the experiment with Activin A [13]. For the same molecule, the “% bound RU w/ no inhibitor” value with Activin A [14] came out at 122%; with Activin A [15], 103%; in the experiment with Activin A [16] it was 100%; with Activin A [17] it was 100%.

B8: H4H10432P2 (antibody, human IgG4, V domains shown)
VH: EVQLVESGGGLVQPGRSLTLSCAVSGFTFDDHAMHWVRQAPGKGLEWVSGISWNSVSIGYADSVKGRFTISRDNAKTSLYLQMNSLRVDDTALYYCVQDLNDILTGYPLFDFWGQGTLVTVSS
VL: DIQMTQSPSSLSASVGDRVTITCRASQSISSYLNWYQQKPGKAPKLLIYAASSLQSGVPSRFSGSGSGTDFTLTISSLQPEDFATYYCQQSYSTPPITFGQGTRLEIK
For B8, the “IC50, inhibition of 100 pM Activin A in A204/CAGAx12-Luc luciferase bioassay” value with Activin A [1] is 1.1e-10 M. Moreover, the “IC50, inhibition of 30 pM Activin AB in A204/CAGAx12-Luc luciferase bioassay” value with Activin AB was 8e-10 M. Besides, the “IC50, inhibition of 4 nM Activin AC in A204/CAGAx12-Luc luciferase bioassay” value with Activin AC came out at 2.8 nM.

B9: H4H10424P (antibody, human IgG4, V domains shown)
VH: QVQLVESGGGVVQPGRSLRLSCAASGFTFSSYGMHWVRQAPGKGLEWVAVIWYDGSNKYNADSVKGRFTISRDNSKNTVYLQMNSLRAEDTAVYYCARARNYDILTGYYNLGMDVWGQGTTVTVSS
VL: DIQMTQSPSSLSASVGDRVTITCRASQGIRNDLGWYQQKPGKAPKRLIYAASSLQSGVPSRFSGSGSGTEFTLTISSLQPEDFATYYCLQHNSYPYTFGQGTKLEIK
Regarding B9, in the experiment with Activin A [1], the “IC50, inhibition of 100 pM Activin A in A204/CAGAx12-Luc luciferase bioassay” value was found to be 7.6e-10 M.

B10: H4H10437P2 (antibody, human IgG4, V domains shown)
VH: EVQLVESGGGLVQPGRSLRLSCAASGFTFDDYAMHWVRQAPGKGLEWVSGISWNSGSIGYADSVKGRFTISRDNAKNSLYLQMNSLRAEDTALYYCAKDIMGNWDYFYGMDVWGQGTTVTVSS
VL: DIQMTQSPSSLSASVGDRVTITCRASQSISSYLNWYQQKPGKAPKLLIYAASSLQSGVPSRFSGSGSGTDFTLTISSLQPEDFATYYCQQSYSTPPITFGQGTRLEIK
In the case of B10, in the experiment with Activin A [1], the “IC50, inhibition of 100 pM Activin A in A204/CAGAx12-Luc luciferase bioassay” value is 2.9e-10 M.

B11: H2aM10965N (antibody, mouse IgG2a, V domains shown)
VH: RVQLVQSGSEVKKPGASVKVSCRASGYIFTSYDINWVRQATGQGLEWMGWMNPNNGNTAYTQKFQGRVTMTRNTSISTAYMELSSLRSEDTAVYYCARKGLLWFGKLLGYGMDVWGQGTTVTVSS
VL: not shown
For the molecule B11, the “IC50, inhibition of 100 pM Activin A in A204/CAGAx12-Luc luciferase bioassay” value in the experiment with Activin A [1] stood at 3.5e-09 M.

B12: H4H10452P2 (antibody, human IgG4, V domains shown)
VH: QVQLQESGPGLVKPSETLSLTCTVSGGSFSSHFWNWIRQSPGRGLEWIGYIYYSGGTNYNPSFKSRVTMSVDTSKNQFSLKLSSVTAADTAVFYCARARSGITFGGVLVPGSFDIWGQGTMVTVSS
VL: not shown
For the molecule B12, the “IC50, inhibition of 100 pM Activin A in A204/CAGAx12-Luc luciferase bioassay” value with Activin A [1] turned out to be 5.8e-11 M.

B13: H4H10430P (antibody, human IgG4, V domains shown)
VH: EVQLVESGGGLVQPGRSLRLSCKASGFAFDDFAMHWVRQAPGKGLEWVSGIVWNSGDIGYADSVKGRFTISRDNAKNSLYLQLNSLRTEDTALYFCVKDMVRGLMGFNYYGMDVWGQGTTVTVSS
VL: EIVLTQSPATLSLSPGERATLSCRASQTISTYLVWYRQRPGQAPSLLIYDASNRATDIPARFSGSGSGTDFTLTISSLEPEDFAVYYCQQRSNWPITFGQGTRLEIK
notes: also called mAb1
Take B13: in the experiment with Activin A [1], the “IC50, inhibition of 100 pM Activin A in A204/CAGAx12-Luc luciferase bioassay” value stood at 6.1e-11 M. The “IC50, inhibition of 30 pM Activin AB in A204/CAGAx12-Luc luciferase bioassay” value with Activin AB stood at 1e-10 M. For the same molecule, the “IC50, inhibition of 4 nM Activin AC in A204/CAGAx12-Luc luciferase bioassay” value in the experiment with Activin AC turned out to be 0.93 nM. Also, the “% bound RU w/ no inhibitor” value in the experiment with Activin A [2] worked out at 2%; in the experiment with Activin A [3] it was 2%; in the experiment with Activin A [4], 2%; with Activin A [5], 81%; in the experiment with Activin A [6] it was 62%; in the experiment with Activin A [7], 19%. The “% bound RU w/ no inhibitor” value with Activin A [8] is 3%; with Activin A [9], 1%; with Activin A [10], 1%; in the experiment with Activin A [11] it was 1%; with Activin A [12] it was 1%; with Activin A [13], 79%. For the same molecule, the “% bound RU w/ no inhibitor” value in the experiment with Activin A [14] amounted to 59%; with Activin A [15], 15%; with Activin A [16] it was 100%; with Activin A [17], 100%.
